According to patent US20190071518A1 (PIERRE FABRE MEDICAMENT, published 2019):
Positions count from the first letter of the chain named.

T1: rhADAM10 (human, UniProt O14672)
T1 construct: also called recombinant human ADAM10 (AD936, R&D Systems)
T1 sequence (recombinant ADAM10 polypeptide, looked up): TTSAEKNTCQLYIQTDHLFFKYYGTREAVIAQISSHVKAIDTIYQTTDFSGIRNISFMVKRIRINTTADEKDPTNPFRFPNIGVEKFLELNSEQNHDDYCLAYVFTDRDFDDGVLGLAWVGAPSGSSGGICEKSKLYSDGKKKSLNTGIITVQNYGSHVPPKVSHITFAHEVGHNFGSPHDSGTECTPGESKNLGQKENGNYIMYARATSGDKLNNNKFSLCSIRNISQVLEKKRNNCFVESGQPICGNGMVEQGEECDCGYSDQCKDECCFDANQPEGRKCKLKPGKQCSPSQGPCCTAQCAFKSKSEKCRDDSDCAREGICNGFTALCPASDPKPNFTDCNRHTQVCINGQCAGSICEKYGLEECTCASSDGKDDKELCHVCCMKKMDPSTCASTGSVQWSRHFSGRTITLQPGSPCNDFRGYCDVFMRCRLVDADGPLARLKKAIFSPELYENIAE

B1: enzymatically deglycosylated 1022C3 (antibody, V domains shown)
VH: QVTLKESGPGILQPSQTLSLTCSFSGFSLDTSGMGVSWIRQPSGKGLEWLAHIYWDDDKRYNPSLKSRLTISKDTSSNQVFLKITSLDTADTATYYCARRSHFGNYYYAMDYWGQGTSVTVTS
VL: DVQMTQTTSSLSASLGDRVTISCRASQDISSYLNWYQQKPDGTFKLLIFYTSRLQSGVPSKYSGSGSGTDYSLTISNLEQEDIAAYFCQQGKTLPLTFGAGTKLELK
notes: also called 1022C3 enzymatically deglycosylated
B2: murine monoclonal antibody 1022C3 (antibody, V domains shown)
VH: B1 VH with D30N
VL: B1 VL
modifications: N-glycosylated asparagine in CDR-H1
notes: Murine IgG from hybridoma I-4686, captured by anti-mouse antibody in the SPR assays; also called m1022C3; mAb 1022C3

Key:
[1] = molecular target: T2, ADAM17 on the surface of human tumour cells (A431 substrate-Nluc cells; NCI-H1299) (human, UniProt P78536 215-824); assay: flow cytometry on the tumour cell line NCI-H1299, antibody titration
T2 construct: Endogenous ADAM17 of human tumour cell lines; also called ADAM17 at the plasma membrane; tumour cell line NCI-H1299
T2 sequence (P78536 215-824 limits assumed): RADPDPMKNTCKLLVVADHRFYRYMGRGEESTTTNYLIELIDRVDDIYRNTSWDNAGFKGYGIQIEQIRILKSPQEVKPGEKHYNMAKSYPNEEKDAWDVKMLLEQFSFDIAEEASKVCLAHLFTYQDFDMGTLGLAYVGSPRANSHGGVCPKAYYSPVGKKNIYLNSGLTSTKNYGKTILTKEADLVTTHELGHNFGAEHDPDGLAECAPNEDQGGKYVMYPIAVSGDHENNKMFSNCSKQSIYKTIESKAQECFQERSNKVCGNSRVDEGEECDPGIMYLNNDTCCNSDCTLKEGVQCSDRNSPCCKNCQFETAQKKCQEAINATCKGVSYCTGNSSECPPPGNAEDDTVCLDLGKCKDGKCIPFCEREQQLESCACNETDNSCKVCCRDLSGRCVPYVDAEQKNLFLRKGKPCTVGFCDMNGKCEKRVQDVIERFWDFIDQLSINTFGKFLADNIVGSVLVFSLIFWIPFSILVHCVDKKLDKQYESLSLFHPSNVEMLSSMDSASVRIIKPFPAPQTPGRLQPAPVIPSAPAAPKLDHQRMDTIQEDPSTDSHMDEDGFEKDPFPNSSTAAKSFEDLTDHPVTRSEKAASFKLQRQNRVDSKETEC

rhADAM10 = molecular target: T1, rhADAM10; assay: ELISA on coated rhADAM10 (2.5 µg/ml), OD 450 nm
Experimental: The binding of 1022C3 to human ADAM17 and ADAM10 was determined by ELISA in comparison to the anti human ADAM10 antibody AB936 (R&D Systems). A ninety six well ELISA plate was coated with 100 μl/well of recombinant human (rh)ADAM17 (930-ADB, R&D Systems) at a concentration of 1 μg/ml or rhADAM10 (AD936, R&D Systems) at a concentration of 2.5 μg/ml in PBS. The coating solution was incubated overnight at 4° C. The plates were then blocked with PBS containing 0.5% gelatin (#22151, Serva Electrophoresis GmbH, Heidelberg, Germany) for 2 h at 37° C. The saturation buffer discarded by flicking plates, 100 μl of 1022C3 at a concentration of 1 μg/ml in PBS or 5 μg/ml of anti human ADAM10 polyclonal (AB936, R&D Systems) was added to the ELISA plates and incubated for 1 h at 37° C. After three washes, 100 μl horseradish peroxidase-conjugated anti human (A7164, Sigma) or anti goat (115-035-164, Jackson ImmunoResearch Europe Ltd) antibody solution diluted 1/5000 in PBS were incubated for 1 h at 37° C. After three washes, 100 μl/well TMB substrate (#UP664782, Uptima, Interchim, France) was added. After a 10 min incubation time at room temperature, the reaction was stopped using 1 M sulphuric acid and the optical density at 450 nm was measured (FIG. 7).

[2] = molecular target: ADAM17 fragments and chimeric constructs giving the positive response; assay: SPR (Biacore X100), about 700 RU m1022C3 captured, analyte 250 nM, FC2-FC1
[3] = molecular target: murine ADAM17 M1-671 (p-c-d-mpd) human Fc fusion (murine; human) (UniProt Q9Z0F8); assay: as above
murine ADAM17 M1-671 (p-c-d-mpd) human Fc fusion (murine; human), sequence (Q9Z0F8 18-671 limits assumed, form in doubt): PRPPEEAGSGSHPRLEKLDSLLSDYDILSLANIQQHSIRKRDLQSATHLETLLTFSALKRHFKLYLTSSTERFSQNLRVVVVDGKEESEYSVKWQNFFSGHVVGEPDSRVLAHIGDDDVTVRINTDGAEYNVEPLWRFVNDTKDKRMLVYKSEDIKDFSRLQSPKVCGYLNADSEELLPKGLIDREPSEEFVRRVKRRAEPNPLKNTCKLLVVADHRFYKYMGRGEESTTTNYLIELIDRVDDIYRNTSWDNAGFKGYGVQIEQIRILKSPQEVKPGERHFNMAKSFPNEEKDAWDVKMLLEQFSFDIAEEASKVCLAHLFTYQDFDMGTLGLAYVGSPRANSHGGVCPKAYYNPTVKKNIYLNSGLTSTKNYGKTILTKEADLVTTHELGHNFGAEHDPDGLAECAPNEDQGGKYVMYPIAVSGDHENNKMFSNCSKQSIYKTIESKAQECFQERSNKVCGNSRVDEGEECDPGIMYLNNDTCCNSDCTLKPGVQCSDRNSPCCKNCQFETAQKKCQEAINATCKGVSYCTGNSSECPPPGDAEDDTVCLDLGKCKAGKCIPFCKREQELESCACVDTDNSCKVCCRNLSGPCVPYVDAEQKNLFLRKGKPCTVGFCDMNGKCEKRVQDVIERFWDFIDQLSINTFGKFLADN

[4] = molecular target: murine/human chimeric ADAM17 M1-602H603-671 (p-c-d-mpd (Nter)-MPD (Cter)) human Fc fusion (murine; human) (UniProt Q9Z0F8); assay: as above
murine/human chimeric ADAM17 M1-602H603-671 (p-c-d-mpd (Nter)-MPD (Cter)) human Fc fusion (murine; human), sequence (Q9Z0F8 other isoform, or with tags, fused parts or gaps mutant limits assumed, form in doubt): as the sequence (Q9Z0F8 18-671 limits assumed, form in doubt) above, with N589D, P593R counted along it

[5] = molecular target: T3, human ADAM17 H603-671 (MPD (Cter)) human Fc fusion (human, UniProt P78536 603-671); assay: as above
T3 construct: not shown: human Fc domain at the C-terminus
T3 sequence (P78536 603-671): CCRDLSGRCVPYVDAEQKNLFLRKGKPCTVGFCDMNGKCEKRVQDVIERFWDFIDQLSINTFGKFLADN
Experimental: (§1) The experiment was performed on a Biacore X100 device. The 1022C3 is used as the ligand and the ADAM17 fragments and chimeric constructs are used as the analyte. The experiment is run at 10 μl/min at 25° C. on a rabbit anti-mouse polyclonal antibody (Mouse antibody capture kit, BR-1008-38, GE Healthcare) covalently linked to the matrix of both flowcells of a CM5 sensorchip (BR-1000-12) using the amine coupling kit (BR-1000-50, GE Healthcare), using the HBS-EP+ buffer (BR-1008-26, GE Healthcare) as the running buffer. This buffer is also used for the dilutions of the ligand and the analytes.
(§2) A solution of the 1022C3 at the concentration of 15 μg/ml is injected on the second flowcell (working surface) during 1 minute. At each cycle, one of the ADAM17 chimeric constructions (with a human Fc domain at the c-terminal positions) is injected at the concentration of 250 nM during 3 minutes on both flow cells: the reference without any 1022C3 (FC1) and the working cell with around 700 RU of m1022C3 (FC2). The registered signal corresponds to the difference between FC2 and FC1 responses.

[6] = molecular target: T4, human ADAM17 H1-474 (P-C) human Fc fusion (human, UniProt P78536 18-474); assay: as above
T4 construct: Range as printed; not shown: human Fc domain at the C-terminus
T4 sequence (P78536 18-474): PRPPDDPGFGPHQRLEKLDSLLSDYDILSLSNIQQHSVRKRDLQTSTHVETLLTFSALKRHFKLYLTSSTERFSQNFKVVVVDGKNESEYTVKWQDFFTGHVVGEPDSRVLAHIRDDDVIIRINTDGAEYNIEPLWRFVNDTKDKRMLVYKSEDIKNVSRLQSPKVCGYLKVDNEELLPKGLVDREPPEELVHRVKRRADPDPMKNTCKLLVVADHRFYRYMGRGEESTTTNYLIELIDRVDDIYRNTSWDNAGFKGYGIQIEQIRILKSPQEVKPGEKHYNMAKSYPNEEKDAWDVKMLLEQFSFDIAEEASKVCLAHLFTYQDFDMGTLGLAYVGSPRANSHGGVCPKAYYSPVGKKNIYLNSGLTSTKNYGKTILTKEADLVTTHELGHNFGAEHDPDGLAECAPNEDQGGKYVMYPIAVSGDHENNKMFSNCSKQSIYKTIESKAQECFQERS
Experimental: as §1, §2

[7] = molecular target: T5, human ADAM17 H223-563 (C-D) human Fc fusion (human, UniProt P78536 223-563); assay: as above
T5 construct: not shown: human Fc domain at the C-terminus
T5 sequence (P78536 223-563): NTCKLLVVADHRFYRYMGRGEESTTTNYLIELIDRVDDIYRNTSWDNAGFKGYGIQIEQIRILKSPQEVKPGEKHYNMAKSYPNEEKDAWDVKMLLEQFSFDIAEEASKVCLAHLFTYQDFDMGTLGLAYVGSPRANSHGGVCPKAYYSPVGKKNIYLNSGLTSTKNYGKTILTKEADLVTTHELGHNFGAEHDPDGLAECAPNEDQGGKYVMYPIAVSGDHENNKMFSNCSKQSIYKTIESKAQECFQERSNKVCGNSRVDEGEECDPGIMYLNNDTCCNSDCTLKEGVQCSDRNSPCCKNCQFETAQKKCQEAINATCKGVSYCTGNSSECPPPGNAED
Experimental: as §1, §2

[8] = molecular target: T6, human ADAM17 H475-563 (D) human Fc fusion (human, UniProt P78536 475-563); assay: as above
T6 construct: not shown: human Fc domain at the C-terminus
T6 sequence (P78536 475-563): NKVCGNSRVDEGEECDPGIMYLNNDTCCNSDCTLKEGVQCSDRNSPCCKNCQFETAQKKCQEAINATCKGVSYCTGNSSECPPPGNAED
Experimental: as §1, §2

[9] = molecular target: T7, human ADAM17 H223-602 (C-D MPD (Nter)) human Fc fusion (human, UniProt P78536 223-602); assay: as above
T7 construct: not shown: human Fc domain at the C-terminus
T7 sequence (P78536 223-602): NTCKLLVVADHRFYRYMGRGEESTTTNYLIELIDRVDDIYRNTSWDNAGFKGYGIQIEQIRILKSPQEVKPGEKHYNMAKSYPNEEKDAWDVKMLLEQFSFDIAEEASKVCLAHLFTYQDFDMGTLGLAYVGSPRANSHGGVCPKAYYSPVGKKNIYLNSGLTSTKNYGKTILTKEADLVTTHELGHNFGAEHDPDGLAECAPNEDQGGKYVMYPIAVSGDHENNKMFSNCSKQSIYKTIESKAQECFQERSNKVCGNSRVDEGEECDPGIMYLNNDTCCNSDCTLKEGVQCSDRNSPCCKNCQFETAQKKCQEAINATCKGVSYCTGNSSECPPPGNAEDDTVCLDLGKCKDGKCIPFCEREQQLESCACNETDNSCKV
Experimental: as §1, §2

[10] = molecular target: T8, human ADAM17 H475-602 (D-MPD (Nter)) human Fc fusion (human, UniProt P78536 475-602); assay: as above
T8 construct: not shown: human Fc domain at the C-terminus
T8 sequence (P78536 475-602): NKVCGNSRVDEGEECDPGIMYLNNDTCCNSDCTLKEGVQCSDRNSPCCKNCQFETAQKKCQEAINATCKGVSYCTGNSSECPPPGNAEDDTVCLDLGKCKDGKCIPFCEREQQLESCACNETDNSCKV
Experimental: as §1, §2

[11] = molecular target: soluble ADAM17 (extracellular domain of ADAM-17) (human, UniProt P78536 215-671); assay: SPR (Biacore), antibody captured on rabbit anti-mouse IgG, soluble ADAM17 400-12.5 nM, 1:1 Langmuir fit
soluble ADAM17 (extracellular domain of ADAM-17), sequence (P78536 215-671): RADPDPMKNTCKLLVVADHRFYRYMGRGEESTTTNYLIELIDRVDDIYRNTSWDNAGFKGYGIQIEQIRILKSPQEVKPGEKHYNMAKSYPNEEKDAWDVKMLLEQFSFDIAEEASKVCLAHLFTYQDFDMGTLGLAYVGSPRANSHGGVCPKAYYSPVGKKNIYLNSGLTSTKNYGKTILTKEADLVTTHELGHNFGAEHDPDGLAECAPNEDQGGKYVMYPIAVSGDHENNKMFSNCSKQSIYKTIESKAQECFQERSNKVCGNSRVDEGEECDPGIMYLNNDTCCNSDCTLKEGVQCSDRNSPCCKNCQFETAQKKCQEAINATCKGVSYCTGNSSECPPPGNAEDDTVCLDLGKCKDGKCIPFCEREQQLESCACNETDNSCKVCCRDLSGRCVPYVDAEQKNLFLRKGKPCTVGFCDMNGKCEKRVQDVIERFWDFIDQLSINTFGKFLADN
Experimental: The antibody (ligand) was bound to the second flowcell of a Biacore CM5 sensor chip (GE Healthcare) activated on both flowcells with a Rabbit anti-Mouse (RAM) IgG (H+L) covalently linked to the carboxymethyldextran matrix. Soluble ADAM17 (analyte) at concentrations ranging from 400 to 12.5 nM obtained by a two fold dilution scheme (assuming a molecular weight of 52 kDa) was injected onto the surface at a flow rate of 30 μl/min in a 120 s pulse (association) plus an extra 180 s delay for the dissociation phase measurement. The RAM surface was regenerated using NaOH 30 mM, NaCl 150 mM and 10 mM Glycine, HCl pH 1.5 buffer solutions. Curves obtained at each concentration were double referenced by first subtracting the signal from the reference FC1 surface (RAM without any mouse anti-TACE mAb) followed by subtraction of the signal obtained from a running buffer injection (Biacore HBS-EP buffer).
Data were processed using BIAevaluation 3.1 software using the 1:1 Langmuir model. The suitability of the fit was measured by the values of the Refractive Index (RI) which have to tend to zero and the κ² value.

Binder | EC50 (read off the curve) [1] | binding result (rhADAM10) | response (RU) [2] | response (RU) [3] | response (RU) [4] | response (RU) [5] | response (RU) [6] | response (RU) [7] | response (RU) [8] | response (RU) [9] | response (RU) [10] | Kd [11] | koff [11] | kon [11]
B1 | ~500 pM |  |  |  |  |  |  |  |  |  |  |  |  | 
B2 | ~500 pM | no binding (tested: 1 µg/ml) | 90 to 140 RU | < 10 RU | < 10 RU | < 10 RU | < 10 RU | < 10 RU | < 10 RU | < 10 RU | < 10 RU | 1.27 nM | 0.00036 s⁻¹ | 284000 M⁻¹ s⁻¹
